“Also recorded” adds a separate entry of the source.
Molecular target: Recombinant DRB4 protein (DRA1/B4*01:01) (human) (UniProt P01903)
Assay: peptide binding competition assay
Conditions: not given

Molecule	IC50 [µM]
GAD65 265–284 peptide	10
ICKKYKIWMHVDAAWGGGLL [GAD65 353–372 peptide]	0.9
HVDVFKLWLMWRAKGTTGFE [GAD65 449–468 peptide]	32
LRTLEDNEERMSRLSKVAPV [GAD65 513–532 peptide]	5.9
VAPVIKARMMEYGTTMVSYQ [GAD65 529–548 peptide]	2.8
KVNFFRMVISNPAATHQDID [GAD65 553–572 peptide]	7.8
ATHQDIDFLIEEIERLGQDL [GAD65 566–585 peptide]	12
DVMNILLQYVVKSFDRSTKV [GAD65 113–132 peptide]	1.4
NTNMFTYEIAPVFVLLEYVT [GAD65 201–220 peptide]	1.2
IAPVFVLLEYVTLKKMREII [GAD65 209–228 peptide]	21
PGGAISNMYAMMIARFKMFP [GAD65 241–260 peptide]	0.6
DERGKMIPSDLERRILEAKQ [GAD65 305–324 peptide]	29
SDLERRILEAKQKGFVPFLV [GAD65 313–332 peptide]	22

Molecular target: DRB4 protein (Homo sapiens, UniProt P01903+P13762, G164S)
Assay: Peptide binding competition assay
Conditions: in vitro competition assay

Molecule	Binding to DRB4 (in words)
PPI 12–23: truncated version of the PPI 9–28 peptide (ALLALWGPDPAA)	able to bind; also recorded: detectable binding

Source: PMC6426329 (Journal of immunology (Baltimore, Md. : 1950), 2018)
